US20230068487A1

Target: commercial recombinant neutrophil elastase (NE) (UniProt P08246)
Test: cell-based or functional assay

Sequence of UniProt P08246 (P08246 30-247 limits assumed): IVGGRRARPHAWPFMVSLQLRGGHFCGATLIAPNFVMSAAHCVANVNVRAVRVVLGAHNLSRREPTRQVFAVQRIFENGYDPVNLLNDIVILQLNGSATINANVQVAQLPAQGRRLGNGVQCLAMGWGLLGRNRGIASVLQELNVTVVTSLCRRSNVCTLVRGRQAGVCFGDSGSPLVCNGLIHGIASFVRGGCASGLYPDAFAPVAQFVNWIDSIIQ

wild type recombinant human alpha-1-antitrypsin (WT-rhAAT) (from UniProt P01009 25-418)
reduction of NE activity (elastase inhibitory activity, chromogenic substrate) at 0.65 µM WT-rhAAT: 75%
